This passage reports recruitment of BGLF2-GFP to the TGN (colocalisation with TGN46) in cotransfected A7 cells, confocal microscopy (% of transfected cells) results from article PMC6993569.

Assay [1] deals with BBLF1-Flag (Epstein-Barr virus).
In assay [2] the target is SDE-BBLF1-Flag (Epstein-Barr virus).

B1: BGLF2-GFP (natural protein)
chain: MASAANSSREQLRKFLNKECLWVLSDASTPQMKVYTATTAVSAVYVPQIAGPPKTYMNVTLIVLKPKKKPTYVTVYINGTLATVARPEVLFTKAVQGPHSLTLMYFGVFSDAVGEAVPVEIRGNPVVTCTDLTTAHVFTTSTAVKTVEELQDITPSEIIPLGRGGAWYAEGALYMFFVNMDMLMCCPNMPTFPSLTHFINLLTRCDNGECVTCYGAGAHVNILRGWTEDDSPGTSGTCPCLLPCTALNNDYVPITGHRALLGLMFKPEDAPFVVGLRFNPPKMHPDMSRVLQGVLANGKEVPCTAQPWTLLRFSDLYSRAMLYNCQVLKRQVLHSY
Regarding B1, the recruitment of BGLF2-GFP to the TGN (colocalisation with TGN46) in cotransfected A7 cells, confocal microscopy (% of transfected cells) in assay [1] and in assay [2] was 70 in each case.
